The text below walks through data of PMC3476531, “Synergy of Peptide and Sugar in O-GlcNAcase Substrate Recognition” (Chemistry & Biology, 2012).

Where a chain is given by its changes, count along the chain named. *: point of attachment. βGlcNAc = CC(=O)N[C@@H]1[C@@H](O)[C@H](O)[C@@H](CO)O[C@H]1*

Test [1] has as its target T1, human O-GlcNAcase (hOGA) Y69F (human) (UniProt O60502).
T1 sequence: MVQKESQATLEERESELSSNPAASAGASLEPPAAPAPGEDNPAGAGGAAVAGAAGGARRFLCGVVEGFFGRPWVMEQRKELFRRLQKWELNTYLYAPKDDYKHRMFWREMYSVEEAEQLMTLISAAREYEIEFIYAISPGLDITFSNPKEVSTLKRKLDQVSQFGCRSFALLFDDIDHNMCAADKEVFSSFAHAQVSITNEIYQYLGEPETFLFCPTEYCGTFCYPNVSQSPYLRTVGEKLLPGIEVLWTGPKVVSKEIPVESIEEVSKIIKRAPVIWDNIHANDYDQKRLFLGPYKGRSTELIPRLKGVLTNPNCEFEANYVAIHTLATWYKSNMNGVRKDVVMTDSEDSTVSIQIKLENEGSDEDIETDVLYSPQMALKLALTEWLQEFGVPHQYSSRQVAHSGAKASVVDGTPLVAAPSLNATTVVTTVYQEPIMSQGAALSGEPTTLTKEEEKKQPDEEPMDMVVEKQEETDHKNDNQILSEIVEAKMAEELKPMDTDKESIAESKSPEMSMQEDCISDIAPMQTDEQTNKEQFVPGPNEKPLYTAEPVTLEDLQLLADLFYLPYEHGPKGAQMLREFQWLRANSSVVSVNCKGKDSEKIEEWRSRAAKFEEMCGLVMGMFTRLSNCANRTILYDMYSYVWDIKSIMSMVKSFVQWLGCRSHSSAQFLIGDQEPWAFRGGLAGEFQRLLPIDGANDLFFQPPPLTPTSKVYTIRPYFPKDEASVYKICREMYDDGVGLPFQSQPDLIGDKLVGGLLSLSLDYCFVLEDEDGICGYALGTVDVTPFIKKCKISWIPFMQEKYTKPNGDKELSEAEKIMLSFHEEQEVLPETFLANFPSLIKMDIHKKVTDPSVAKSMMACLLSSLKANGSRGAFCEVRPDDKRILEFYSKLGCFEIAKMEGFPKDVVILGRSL

For test [2], the target named is T2, human O-GlcNAcase (hOGA) Y69K (human) (UniProt O60502).
T2 sequence: T1 sequence with F69K

Test [3] concerns the target T3, human O-GlcNAcase (hOGA), wild-type (human) (UniProt O60502).
T3 sequence: T1 sequence with F69Y

B1: TAB1 peptide PVSVPYS(O-GlcNAc)SAQSTS (peptide)
peptide: Ac-PVSVPYS(βGlcNAc)SAQSTS-NH2
SMILES: CC(=O)N[C@H]1[C@H](OC[C@H](NC(=O)[C@H](Cc2ccc(O)cc2)NC(=O)[C@@H]2CCCN2C(=O)[C@@H](NC(=O)[C@H](CO)NC(=O)[C@@H](NC(=O)[C@@H]2CCCN2C(C)=O)C(C)C)C(C)C)C(=O)N[C@@H](CO)C(=O)N[C@@H](C)C(=O)N[C@@H](CCC(N)=O)C(=O)N[C@@H](CO)C(=O)N[C@H](C(=O)N[C@@H](CO)C(N)=O)[C@@H](C)O)O[C@H](CO)[C@@H](O)[C@@H]1O
With B1, the KM of the glycopeptide substrate (substrate competition assay with 4MU-GlcNAc as reporter substrate) in test [1] was 1100 µM; in test [2], above 4000 µM; in test [3], 940 µM.
